Experimental findings from patent US20210002656 are described below.

The data set deals with T1, I-SceI (UniProt P03882).
T1 sequence: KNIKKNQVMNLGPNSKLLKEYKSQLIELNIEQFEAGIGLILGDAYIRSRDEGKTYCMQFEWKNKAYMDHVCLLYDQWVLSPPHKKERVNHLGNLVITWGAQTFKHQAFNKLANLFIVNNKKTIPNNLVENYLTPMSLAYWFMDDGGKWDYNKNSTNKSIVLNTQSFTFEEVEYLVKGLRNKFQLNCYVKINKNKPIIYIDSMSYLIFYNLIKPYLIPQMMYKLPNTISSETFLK
Briefly: cell_activity. To be noted: protein delivered to N. tabacum protoplasts, SSA assay; 0.49% when delivered as DNA; 2.4% sequential delivery.

I-SceI site in YFP SSA plasmid displayed an activity of 4.4 % YFP.
